Results taken from US5879896A, “Method of screening for inhibitors of human thyrotropin releasing hormone (TRH) receptor” (Takeda Chemical Industries, Ltd., priority 1993, dated 1999).
Where two headings read alike, the source gives them in different places. Square brackets hold non-standard residues; d marks the D form. Ends that are not written are not given here. Peptide text beside a SMILES is read from it. Blc = γ-butyrolactone-γ-carbonyl group; pGlu = O=C1CC[C@@H](C(=O)O)N1; ΔPro = O=C(O)[C@@H]1C=CCN1; Nva = CCC[C@H](N)C(=O)O; His(3-Me) = 3-Me-His

Key:
CHO dhfr- cells = assay: [3H]TRH binding to CHO dhfr- cell line into which no human TRH receptor DNA was introduced (Example 4); design: species or system Chinese hamster; conditions: no human TRH receptor DNA introduced (FIG. 9)
Description: This plasmid was cleaved with SalI and ClaI. The plasmid obtained in Example 3 in which the translation frame (open reading frame) of the human TRH receptor was constructed on pUC118 was cleaved with HindIII, and repaired with a Klenow fragment, followed by addition of an SalI linker. The resulting fragment was further cleaved with SmaI, and a fragment containing the translation frame (open reading frame) of the human TRH receptor and a ClaI linker were added thereto. This was cleaved with SalI and ClaI, and thereafter, the plasmid DNA previously cleaved with SalI and ClaI was bound thereto to complete an expression plasmid. This plasmid DNA was purified by cesium chloride equilibrium density gradient centrifugation, and partially introduced into the CHO dhfr^- cell line with a gene introduction kit (CellPhect, Pharmacia) by the calcium phosphate precipitation method. The original CHO dhfr^- cell line is impossible to grow in a medium not containing a nucleoside and a nucleotide, because of lack of dhfr phenotype. […] The cells were dissolved in 500 μl of 1% SDS and 0.2N NaOH, and the radioactivity contained therein was measured by use of liquid scintillator A. In order to know the non-specific binding, a group was also prepared to which non-labeled TRH was added to a final concentration of 10 μM in addition to [^3 H] […]

human TRH receptor = biological target: T1, human TRH receptor (Homo sapiens, UniProt P34981); assay: Antagonism of [3H]TRH binding in CHO dhfr- cells transformed with human TRH receptor DNA (Examples 5 and 6); design: translation frame (open reading frame) of the human TRH receptor was constructed on pUC118; expressed in transfected cells; host or cells: CHO dhfr- cells (plasmid pAKKO1.11 with the human TRH receptor open reading frame); conditions: for inhibition at 100 µM / inhibition at 10 µM / inhibition at 1000 µM: 1 h; for Antagonistic binding activity to the human TRH receptor, in words: benzodiazepine compounds, 10 μM to 1 mM; for Antagonistic Rate (%) at Each Concentration (-log M): 60 min
T1 sequence (P34981 1-398): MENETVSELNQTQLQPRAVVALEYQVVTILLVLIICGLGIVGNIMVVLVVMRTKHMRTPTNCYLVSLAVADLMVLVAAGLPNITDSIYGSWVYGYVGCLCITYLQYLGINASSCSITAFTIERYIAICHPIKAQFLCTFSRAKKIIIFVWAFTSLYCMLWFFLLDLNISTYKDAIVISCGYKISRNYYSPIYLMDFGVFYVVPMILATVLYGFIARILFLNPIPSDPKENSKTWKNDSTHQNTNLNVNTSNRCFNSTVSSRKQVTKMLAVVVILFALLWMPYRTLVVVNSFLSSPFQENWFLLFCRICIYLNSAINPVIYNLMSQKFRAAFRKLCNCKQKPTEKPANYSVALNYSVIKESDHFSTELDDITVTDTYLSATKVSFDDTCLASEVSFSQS

[1] = biological target: T2, human TRH receptor protein (human); assay: competition with 10 nM 3H-TRH, CHO cells expressing human TRH receptor; compound at 10^-4 M
T2 chain: T1 sequence (P34981 1-398)

[2] = biological target: T2, human TRH receptor protein; assay: competition with 10 nM 3H-TRH, CHO cells expressing human TRH receptor; compound at 10^-5 M
[3] = biological target: T2, human TRH receptor protein; assay: competition with 10 nM 3H-TRH, CHO cells expressing human TRH receptor; compound at 10^-7 M
Description: (§1) In Table 2, the degree of a reduction in the binding of [^3H] TRH in the case where the TRH analogous compound having respective concentrations was added to the total binding of [^3H] TRH in the case where no TRH analogous compound existed was indicated as percentage. The specific activity of [^3H] TRH used in the experiment was 83.04 Ci/mmol, and this was added to give a concentration of 10 nM in the reaction solution. For the compounds indicated by (*1) in the table, the specific activity of [^3H] TRH was 45 Ci/mmol, and this was added to give a concentration of 18.3 nM in the reaction solution.

[4] = biological target: T2, human TRH receptor protein; assay: competition with 10 nM 3H-TRH, CHO cells expressing human TRH receptor; compound at 10^-11 M
Description: as §1

[5] = biological target: T2, human TRH receptor protein; assay: competition with 18.3 nM 3H-TRH, CHO cells expressing human TRH receptor; compound at 10^-5 M
Description: as §1

[6] = biological target: T2, human TRH receptor protein; assay: competition with 18.3 nM 3H-TRH, CHO cells expressing human TRH receptor; compound at 10^-8 M
Description: as §1

[7] = biological target: T2, human TRH receptor protein; assay: competition with 18.3 nM 3H-TRH, CHO cells expressing human TRH receptor; compound at 10^-6 M
Description: as §1

[8] = biological target: T2, human TRH receptor protein; assay: competition with 10 nM 3H-TRH, CHO cells expressing human TRH receptor; compound at 10^-12 M
Description: as §1

[9] = biological target: T2, human TRH receptor protein; assay: competition with 18.3 nM 3H-TRH, CHO cells expressing human TRH receptor; compound at 10^-10 M
Description: as §1

[10] = biological target: T2, human TRH receptor protein; assay: competition with 10 nM 3H-TRH, CHO cells expressing human TRH receptor; compound at 10^-6 M
Description: as §1

[11] = biological target: T2, human TRH receptor protein; assay: competition with 10 nM 3H-TRH, CHO cells expressing human TRH receptor; compound at 10^-10 M
Description: as §1

[12] = biological target: T2, human TRH receptor protein; assay: competition with 18.3 nM 3H-TRH, CHO cells expressing human TRH receptor; compound at 10^-9 M
Description: as §1

[13] = biological target: T2, human TRH receptor protein; assay: competition with 10 nM 3H-TRH, CHO cells expressing human TRH receptor; compound at 10^-9 M
[14] = biological target: T2, human TRH receptor protein; assay: competition with 18.3 nM 3H-TRH, CHO cells expressing human TRH receptor; compound at 10^-7 M
Description: as §1

[15] = biological target: T2, human TRH receptor protein; assay: competition with 10 nM 3H-TRH, CHO cells expressing human TRH receptor; compound at 10^-8 M
[16] = -log M = 4, 10 nM [3H]TRH, read-out: Antagonistic Rate (%) at Each Concentration (-log M)
[17] = -log M = 5, 10 nM [3H]TRH, read-out: Antagonistic Rate (%) at Each Concentration (-log M)
[18] = read-out: Antagonistic activity (TABLE 1; percentage to that of the control)

## [L-proline-2,3,4,5-^3 H(N)]-(Pyro)Glu-His-Pro-NH2 [[^3 H] TRH]
CHO dhfr- cells
  Specific binding, in words: no specific binding was detected at all

## O=C1N[C@@H](Cc2c[nH]cn2)C(=O)N2CCC[C@@H]12 [Compound 2, Cyclo(His--Pro) His Pro-Diketopiperazine]
Human TRH receptor; [16]
  inhibition at 100 µM: -1.1%
Human TRH receptor; [17]
  inhibition at 10 µM: 0.6%

## CNC1=Nc2ccc(Cl)cc2C(c2ccccc2)=[N+]([O-])C1 [Chlordiazepoxide, chlordiazepoxide]
Human TRH receptor; [18]
  inhibition at 10 µM: -2.2%
  inhibition at 100 µM: 7.1%
  inhibition at 1000 µM: 46.8%
Human TRH receptor
  Antagonistic binding activity to the human TRH receptor, in words: antagonistic activity increased in order of midazolam, chlordiazepoxide and oxazepam

## Cc1ncc2n1-c1ccc(Cl)cc1C(c1ccccc1F)=NC2 [Midazolam, midazolam]
Human TRH receptor; [18]
  inhibition at 10 µM: 2.6%
  inhibition at 100 µM: 12%
  inhibition at 1000 µM: 69.7%
Human TRH receptor
  Antagonistic binding activity to the human TRH receptor, in words: antagonistic activity increased in order of midazolam, chlordiazepoxide and oxazepam

## CN1C(=O)CN=C(c2ccccc2F)c2cc([N+](=O)[O-])ccc21 [Flunitrazepam, flunitrazepam]
Human TRH receptor; [18]
  inhibition at 10 µM: -0.5%
  inhibition at 100 µM: -4%
  inhibition at 1000 µM: -13.7%
Human TRH receptor
  Antagonistic binding activity to the human TRH receptor, in words: no antagonistic binding was observed at all

## CCC[C@H](NC(=O)[C@@H]1CCC(=O)N1)C(=O)N1CCC[C@H]1C(N)=O [Compound 15, pGlu NVal Pro NH2] ([pGlu]-[Nva]-Pro-NH2)
Human TRH receptor; [16]
  inhibition at 100 µM: 78.6%
Human TRH receptor; [17]
  inhibition at 10 µM: 33.4%

## NC(=O)[C@@H]1CCCN1C(=O)[C@H](Cc1ccccc1)NC(=O)[C@@H]1CCC(=O)N1 [Compound 14, pGlu Phe Pro NH2] ([pGlu]-Phe-Pro-NH2)
Human TRH receptor; [16]
  inhibition at 100 µM: 96.2%
Human TRH receptor; [17]
  inhibition at 10 µM: 74.2%

## pGlu His Pro Gly Lys ([pGlu]HPGK) [Compound 3]
Human TRH receptor; -log M = 5, 10 nM [3H]TRH
  Antagonistic Rate (%) at Each Concentration (-log M): 31.9%
Human TRH receptor; -log M = 6, 10 nM [3H]TRH, 1 µM
  Antagonistic Rate (%) at Each Concentration (-log M): -0.6%

## HP (cyclic dipeptide (diketopiperazine) of His and Pro) [Cyclo(His--Pro) His Pro-Diketopiperazine]
[1]
  Antagonistic Rate (%): -1.1%
[2]
  Antagonistic Rate (%): 0.6%

## [pGlu]-His-Pro-NH2 [TRH (pGlu His Pro NH2)]
[3]
  Antagonistic Rate (%): 90.7%
[4]
  Antagonistic Rate (%): 0.7%
[5]
  Antagonistic Rate (%): 99.7%
[6]
  Antagonistic Rate (%): 39.8%
[7]
  Antagonistic Rate (%): 97.8%
[8]
  Antagonistic Rate (%): 0%
[9]
  Antagonistic Rate (%): -0.7%
[10]
  Antagonistic Rate (%): 98.7%
[2]
  Antagonistic Rate (%): 99.7%
[11]
  Antagonistic Rate (%): 0.3%
[12]
  Antagonistic Rate (%): 4.2%
[13]
  Antagonistic Rate (%): 7.2%
[14]
  Antagonistic Rate (%): 83.9%
[15]
  Antagonistic Rate (%): 52%

## [pGlu]-[His(3-Me)]-Pro-NH2 [pGlu 3-Me-His Pro NH2]
[4]
  Antagonistic Rate (%): -7.1%
[8]
  Antagonistic Rate (%): -6.5%
[2]
  Antagonistic Rate (%): 97.9%
[11]
  Antagonistic Rate (%): -4.4%
[13]
  Antagonistic Rate (%): 20%
[15]
  Antagonistic Rate (%): 85%

## [pGlu]-Glu-Pro-NH2 (SMILES NC(=O)[C@@H]1CCCN1C(=O)[C@H](CCC(=O)O)NC(=O)[C@@H]1CCC(=O)N1) [pGlu Glu Pro NH2]
[2]
  Antagonistic Rate (%): -2.9%

## Blc-His-Pro [Blc His Pro]
[1]
  Antagonistic Rate (%): 0.7%
[2]
  Antagonistic Rate (%): -0.1%

## Glu-His-Pro-NH2 [Glu His Pro NH2]
[5]
  Antagonistic Rate (%): 95.3%
[6]
  Antagonistic Rate (%): 1.8%
[7]
  Antagonistic Rate (%): 70.7%
[9]
  Antagonistic Rate (%): 2%
[12]
  Antagonistic Rate (%): 1%
[14]
  Antagonistic Rate (%): 19.7%

## [pGlu]-His-[ΔPro]-NH2 (SMILES NC(=O)[C@@H]1C=CCN1C(=O)[C@H](Cc1c[nH]cn1)NC(=O)[C@@H]1CCC(=O)N1) [pGlu His 3,4-dihydro-Pro NH2]
[5]
  Antagonistic Rate (%): 99.7%
[6]
  Antagonistic Rate (%): 39.1%
[7]
  Antagonistic Rate (%): 98.3%
[9]
  Antagonistic Rate (%): 2.2%
[12]
  Antagonistic Rate (%): 7%
[14]
  Antagonistic Rate (%): 84.6%

## [pGlu]-Phe-Pro-NH2 [pGlu Phe Pro NH2]
[1]
  Antagonistic Rate (%): 96.2%
[2]
  Antagonistic Rate (%): 74.2%

## [pGlu]-[Nva]-Pro-NH2 (SMILES CCC[C@H](NC(=O)[C@@H]1CCC(=O)N1)C(=O)N1CCC[C@H]1C(N)=O) [pGlu NVal Pro NH2]
[1]
  Antagonistic Rate (%): 78.6%
[2]
  Antagonistic Rate (%): 33.4%

## [pGlu]-His-Pro [pGLU His Pro]
[1]
  Antagonistic Rate (%): 40.8%
[2]
  Antagonistic Rate (%): 11.8%
